Experimental data from paper PMC12440737 (2025).

Biological target: T1, IL-6 receptor (Homo sapiens, UniProt P08887)
T1 chain: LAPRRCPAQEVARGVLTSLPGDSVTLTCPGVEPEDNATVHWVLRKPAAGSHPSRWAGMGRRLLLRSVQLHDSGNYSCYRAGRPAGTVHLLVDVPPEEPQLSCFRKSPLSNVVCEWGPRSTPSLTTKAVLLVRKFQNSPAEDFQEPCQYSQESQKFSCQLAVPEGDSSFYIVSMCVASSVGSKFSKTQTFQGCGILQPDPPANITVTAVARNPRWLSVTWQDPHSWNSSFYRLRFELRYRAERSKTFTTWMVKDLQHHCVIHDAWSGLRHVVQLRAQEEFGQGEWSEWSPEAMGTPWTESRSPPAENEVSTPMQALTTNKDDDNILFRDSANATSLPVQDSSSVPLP
Assay: SPR

B1: Tocilizumab (antibody, V domains shown)
VH: QVQLQESGPGLVRPSQTLSLTCTVSGYSITSDHAWSWVRQPPGRGLEWIGYISYSGITTYNPSLKSRVTMLRDTSKNQFSLRLSSVTAADTAVYYCARSLARTTAMDYWGQGSLVTVSS
VL: DIQMTQSPSSLSASVGDRVTITCRASQDISSYLNWYQQKPGKAPKLLIYYTSRLHSGVPSRFSGSGSGTDFTFTISSLQPEDIATYYCQQGNTLPYTFGQGTKVEIK
  Kd: 9.9 nM
